In PMC8226839, “New Perspectives in the Antimicrobial Activity of the Amphibian Temporin B: Peptide Analogs Are Effective Inhibitors of Candida albicans Growth” (Journal of Fungi, 2021):

B1: Trypsin: protease, applied alone as control after neutralization with 1.25% FCS (protein, UniProt P00760 24-246, looked up)
Serine protease 1: IVGGYTCGANTVPYQVSLNSGYHFCGGSLINSQWVVSAAHCYKSGIQVRLGEDNINVVEGNEQFISASKSIVHPSYNSNTLNNDIMLIKLKSAASLNSRVASISLPTSCASAGTQCLISGWGNTKSSGTSYPDVLKCLKAPILSDSSCKSAYPGQITSNMFCAGYLEGGKDSCQGDSGGPVVCSGKLQGIVSWGSGCAQKNKPGVYTKVCNYVSWIKQTIASN
B2: Proteinase K: protease, applied alone as control after thermal inactivation (protein, UniProt P06873 106-384, looked up)
Proteinase K: AAQTNAPWGLARISSTSPGTSTYYYDESAGQGSCVYVIDTGIEASHPEFEGRAQMVKTYYYSSRDGNGHGTHCAGTVGSRTYGVAKKTQLFGVKVLDDNGSGQYSTIIAGMDFVASDKNNRNCPKGVVASLSLGGGYSSSVNSAAARLQSSGVMVAVAAGNNNADARNYSPASEPSVCTVGASDRYDRRSSFSNYGSVLDIFGPGTSILSTWIGGSTRSISGTSMATPHVAGLAAYLMTLGKTTAASACRYIADTANKGDLSNIPFGTVNLLAYNNYQA
modifications: heat-inactivated

System: C. albicans
Assay: Broth microdilution, impact of protease inactivation conditions (growth %)
Assay type: cell-based, Candida albicans

Molecule | Growth [%] (0.125 µM protease alone + 1.25 % FCS) | Growth [%] (0.125 µM protease alone + 100 °C, 15 min)
B1 | 136.7 ± 14 | 
B2 |  | 86 ± 4.5
